{
  "source": "paper PMC2875725",
  "target": "HCV NS5B RNA-dependent RNA polymerase (Hepatitis C virus (strain ), UniProt Q9WMX2 2421-3010)",
  "sequence (Q9WMX2 2421-3010)": "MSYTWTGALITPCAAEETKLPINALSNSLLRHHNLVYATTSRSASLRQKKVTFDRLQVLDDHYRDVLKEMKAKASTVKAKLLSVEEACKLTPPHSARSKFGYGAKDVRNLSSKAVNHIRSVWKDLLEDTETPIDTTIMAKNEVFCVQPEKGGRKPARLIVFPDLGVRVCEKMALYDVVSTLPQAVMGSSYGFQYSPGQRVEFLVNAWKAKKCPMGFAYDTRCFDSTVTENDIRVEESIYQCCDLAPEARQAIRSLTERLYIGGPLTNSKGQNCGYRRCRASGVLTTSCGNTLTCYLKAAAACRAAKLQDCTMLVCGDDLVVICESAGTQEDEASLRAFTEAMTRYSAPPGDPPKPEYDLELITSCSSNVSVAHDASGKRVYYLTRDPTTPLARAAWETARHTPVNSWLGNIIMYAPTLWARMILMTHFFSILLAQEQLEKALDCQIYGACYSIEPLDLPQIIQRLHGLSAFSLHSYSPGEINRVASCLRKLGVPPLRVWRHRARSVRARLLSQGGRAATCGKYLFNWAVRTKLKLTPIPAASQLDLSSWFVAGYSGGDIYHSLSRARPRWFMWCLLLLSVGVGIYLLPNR",
  "test": "protein chip with QD fluorescence",
  "data": [
    {"binder": "CCCCACAUUCUCACCCCCUC (ssRNA, 5'-amine)", "note": "[NS5Bmut RNA oligonucleotide]", "values": [
      {"measurement": "binding result", "result": "no binding"}
    ]}
  ]
}
